Assay results reported in a protein production outcome set (Wang et al. 2014).

Experiment: label from the status in PepcDB records

Sequence | protein production
MTSGATRYRLSCSLRGHELDVRGLVCCAYPPGAFVSVSRDRTTRLWAPDSPNRSFTEMHCMSGHSNFVSCVCIIPSSDIYPHGLIATGGNDHNICIFSLDSPMPLYILKGHKNTVCSLSSGKFGTLLSGSWDTTAKVWLNDKCMMTLQGHTAAVWAVKILPEQGLMLTGSAGKTVKLWKAGRCERTFSGHEDCVRGLAILSETEFLSCANDASIRRWQITGECLEVYYGHTNYIYSISVFPNCRDFVTTAEDRSLRIWKHGECAQTIRLPAQSIWCCCVLDNGDIVVGASDGIIRVFTESEDRTASAEEIKAFEKELSHATIDSKTGDLGDINAEQLPGREHLNEPGTREGQTRLIRDGEKVEAYQWSVSEGRWIKIGDVVGSSGANQQTSGKVLYEGKEFDYVFSIDVNEGGPSYKLPYNTSDDPWLTAYNFLQKNDLNPMFLDQVAKFIIDNTKGQMLGLGNPSFSDPFTGGGRYVPGSSGSSNTLPTADPFTGAGRYVPGSASMGTTMAGVDPFTGNSAYRSAASKTMNIYFPKKEAVTFDQANPTQILGKLKELNGTAPEEKKLTEDDLILLEKILSLICNSSSEKPTVQQLQILWKAINCPEDIVFPALDILRLSIKHPSVNENFCNEKEGAQFSSHLINLLNPKGKPANQLLALRTFCNCFVGQAGQKLMMSQRESLMSHAIELKSGSNKNIHIALATLALNYSVCFHKDHNIEGKAQCLSLISTILEVVQDLEATFRLLVALGTLISDDSNAVQLAKSLGVDSQIKKYSSVSEPAKVSECCRFILNLL | failed
MDVQFAILAFTSLFSILNPFGVIPTYLVLTSQYSKVEKIKIIRKSMLAAFIILMMFALLGNQIIGFFGISIPAIKITGGVLLFLIALDMIQGNTSKVEKSPKLESHLKSHAEEIEEMDEIAIVPLTVPLLTGPGSISAVIAMMAQTSDFDGKISVIIAISLCIIISYFVLKFSKDLEKMLGKIGFKVLTKMMGLVLTAISIQMALDGILMVFG | failed
MDSIKGVFTGNKDTPLEESNLPVEAFTLLRFADELKNARRLGKFKQYIVGRSSEATFADAFEKQEAVIRYLGALDATGENLQASQKQDAAKHCKCTITDVENTLSKFTWARQAHKKMTELKEGGKPLPKNMGEVFFSLCILICFFSSISSYV | failed
MKTINVITLVLLIVGGLNWGLVGLFQFDLVAALFGGQDALLSRVVYTLVGISALRQLVPLFRNNHDTAEHHTSPHVRNNP | failed
MGTEVSTSPTSLIDQTVVPGDVVLDLSNMTNQTIKLGSGLRQDNEVISVMRAGKLRYSKPNKYWVESSHKRYVPRPEDHVLGIVVDCKGENYWIDIKGPQLALLPVLAFEGANRRNYPKFEVSTLLYTRVVKTNTGMNPELSCVDESGKAAGFGPLKDGFMFETSTGLSRMLLSSPTCPVLEALGKKLSFETAFGLNGRCWVHAAAPRIVIIVANALMNSETLSGTQQRIMVEKLLEKISD | failed
MRRTNTFAVRPLSDDDERLLLDLLDASASLWNELNYERRQQFFDGESVWDTADYRKQYVGVLGSATAQQVIRKNKSAWQSFFAARENGEDTAPPGYWGNEDDGRELRTFIRHDLYTLDTGERSRVEIPVGQDLKDEYGLGYHDRLRLEVAGDPKWDGEQGRLEIQYGETDDTFRAFQPVTVPDSRQDSPLASHEAALDVGANNLVACTTTTGEQYLYEGRGLFAHFRETTREIARLQSKLREGRYSSQRIRRLYRKRTRRRDHAQDALVRDLMERLYAEGVDTVYVGDLTDVLSTHWCAEVNAKTHQFWAFRAFIERLSHTAEEYGITVEVRSEADTTRTCPACGEQDDTDRDGDVFRCPCGHEAHADLCASRTFLERQTGKPVGSMARPVRLKWDDHNWSEIPHSPERARPNEKRTNQSTDSQDGKLASVGTA | failed
MSRDTVRPPCVHPGFARPLPARASLPFLGRVSPGDSSRRAGRDGRKWGMESGPAIFAGTVFALFGGGLLTWTVSRVRHRAPVAHDVNPVASATLAGLAAVSALVLGAWCFTHL | failed
MALDSPVGRRLGLVLQSRSNGVGPDQLFGDSELDHRAVCVIGEKGAERLAGPERGVVGRDSLCCVHTRPYGLWPLHWPRPAAATTLSRPAILTPRTATRTCMTEATGIVGEFLTLKEGTDADLLAMQCGDFYEFFAEDAEIVADELDLKVSQKSSHGSSYPMAGVPVDDLTPYVSALVERGYRVAIADQHETENGHAREITRVVTPGTHLETGDESAQYLAAVVREASRDSGDTYGIAATDVTTGQFQVTQLDDADAGEALTELYTFGPAEILPGPELRNDDEFLDRLRERTDAALTLHDSASFEPGRASHTVREQFGSETVDSVGIGDQNVAVRAAGAVLSYVEDTGVGTLAAVTRLQAYGERDHVDLDATTQRNLELTETMQGDSSGSLFDTIDHTVTAAGGRLLQQWLQRPRRNRAELQRRQSCVAALSEAAMARERIRETLSDAYDLERLAARATSGSADARDLRAVQETLALLGQVADAVTETERLAESPLADALDGADREAADSLAAELDSALVADPPGTVRQGGLFKRGHDDDLDEIIDEHEAALEWLETLPDREKERTGITHLSVDRNKTDGYYIQVGKSETDAVPEKYQHIKTLKNSKRYTTPELDEKERDVLRLEERRHDMEYEHFQRLRARVAEHATLLQDVGRTLAELDAFASLAVHAVENDWARPAVVDGNELSIEAGRHPVVEQTTEFVPNDLYMDDDRQFLIVTGPNMSGKSTYMRQAALITLLAQVGSFVPARSATVGLVDGIFTRVGALDELAQGRSTFMVEMQELSNILHSATEESLVILDEVGRGTATFDGISIAWAATEYIVNSIQSKTLFATHYHELTALGEELPTVENVHVAVDGEPRSAGSDGDVTFLRTVRDGPTDRSYGVHVADLAGVPEPVVDRSQAVLDRLRDDKAIEIRGSEQNDGGTTQAVFDLDSGQFRDGAAQSGGAAAGSTAEPVATDGDPEHAPGEAAAEGPKGDERAASLDSETEAVLSELTELDVNETPPVELMAKVQEWQAELDDE | failed
VNPLLDSLQPYPFEKLRALFKDVTPNAGLAHISFGIGEPKHPTPALIRDAVVASLGGLSAYPATSGSPALRESIAKWVTQRYNLPPVDPATQVLPVSGSREALFSLAQTVLDPQKNAGGEPAIVLCPNPFYQIYEGAAILAGAQPYFVNSDPARNFACDYSAVPAEIWARTQLLYVCSPGNPTGAVLTLDDWRELFALSDRYGFVIASDECYSEIYFDEAKPPLGGLEAAHKLGRGFERLVMLSSLSKRSNVPGMRSGFVAGDAAILKDFLLYRTYHGAALSTVFQNASIAAWNDEAHVRENRAKYLQKFSTVTPMLAEVLDVRLPDAAFYLWADVSRTGLTDTVFAQRLYADYNVTVLPGSFLARTAHGVNPGRNFVRMALVADVDECTQGAQRIVDFCRALAG | not failed
MPANPRILETMSQLFVSFPHCATLGFEYVGTDGRKPTLKLQWREDLVGNPATGILHGGVITSLVDTCSAIAVTAHLPELETIATLDLRIDYLKSATPGKAIHCTAECYRLASQIAFTRAVCYHDNPADPIAHGVATFMRESSLEHHHHHH | failed
MKKILAICGIELSLIFKKPQNYLIMFAAPLLLTFVFGSMLSGNDDKVRLAIVDQDDTILSQHYIRQLKAHDDMYVFENMSESKASEKLKQKKIAGIIVISRSFQTQLEKGKHPELIFRHGPELSEAPMVKQYAESALATLNIQVTAAKTASQTAGENWKAAYKTVFAKKHEDIVPAVTRQTLSDKKEGAEASDTASRAAGFSILFVMLTMMGAAGTILEARKNGVWSRLLTASVSRAEIGAGYVLSFFVIGWIQFGILLLSTHWLFGINWGNPAAVIVLVSLFLLTVVGIGLMIAANVRTPEQQLAFGNLFVIATCMVSGMYWPIDIEPKFMQSIAEFLPQKWAMSGLTEIIANGARVTDILGICGILLAFAAITFAAGLKALRA | failed
MKTTLLKTLTPELHLVQHNDIPVPSLKTCGWNTKNFPCKGHSLSVGXPQNAKQDVLWLSEVEPFKNGNAIRGGVPICYPWFGGVKQPAHGTARIRLWQLSHYYISVHKVRLEFELFSDLNIIEAKVSMVFTDKCHLTFTHYGEESAQAALHTYFNIGDINQVEVQGLPETCFNSLNQQQENVPSPRHISENVDCIYSAENMQNQILDKSFNRTIALHHHNASQFVLWNPWHKKTSGMSETGYQKMLCLETARIHHLLEFGESLSVEISLKG | not failed
PGQVIGLFGGSFDPPHAGHVHVTREALKMFGLDRVWWLVTPGNPLKAHGPAPLDRRMEAARAMMRHPRVDVTDIEAHLGTRVTADTIAALRRIYPRVRFVWLMGADNLAQLHRWKDWRQIIETVPVGVLARPGDRISARMSPAARAYAPYRIDGQARHLLGRAEAPAWCFVNVPMVDVSSTRIRAAGGWSAAQQGR | failed
MNYILHLSILLVVAKLLEWLFEKKDIHPIIAHILTGIILGPFLLGIIYPNEELKVLSEFGLIMMMLYMGLTSNFSAIAQNKVKAIVVASLGVAFSFILGFTTVYLFGKGISAALFVGITLGNTAIEVTSGVIMKERIKREISSVLMGAAFADDIIAVYLIGILTGMIKGQTSLLSLAILTIKIVAFILSVLIFSEFVFKKSSLIYNLVIKDLNVFFTFTIILTFSLAVIAEGIGLNRIIGAYLAGLTISRLRERKDPLIISRIKLNELINELQVVLTEFFIPLFFIYVGLMFDPDTSEINLLLIALLYASAILGKLIGCGLGVKVFKGSWKDAVIVGIGMGGRGSLDLALLKFGLESGMIGEDLFATTVIVSMLTALSTPIFFRKTVKKLSEE | failed
MSQLPTLIADLALILICAGVMTLLFKKLKQPLVLGYVVAGFLASPHMPYTPSVMDTANIKTWADIGVIFLLFALGLEFSFKKIVKVGGSAIIAACTIIFCMILLGIGVGMGFGWHRMDSLFLGGMIAMSSTTIIYKAFDDLGLRKKQFTGLVLSILILEDILAIVLMVMLSTMAVSHNFEGTEMLESIGKLLFFLILWFVVGIYLIPEFLKRCRKLMGEETLLIVSLALCFGMVVMAANTGFSAAFGAFIMGSILAETIEAESIDRLVKPVKDLFGAIFFVSVGMMVDPAMIIEYAIPIIVITIAVILGQATFGTFGVILSGKPLKTAMQCGFSLTQIGEFAFIIASLGVSLHVTSDFLYPIVVAVSVITTFLTPYMIRLAEPASSFVDAHLPASWRKFLMRYSSGSQTVLNHENLWKKLLLAMVRITVVYSIVSISIIALSFRFVVPFFKENLPHFWASLLGAVFIILCISPFLRAIMVKKNHSVEFMTLWHDNRANRAPLVSTIVIRIMIAALFVIFVISGLFKASIGLIIGVAVLAVLLMVWSRRLKKQSILIERRFFQNLRSREVRAEYLGEKKPEYAGRLLSHDLHLADLEIPGESTWAGKTLMELNLGKKYGIHIASILRGKRRINIPGGSVRLFPMDKIQVIGTDEQLNVFSSAMQSGAKIDWEMYEKGEMTLKQFIIDADSVFLGKTIRESGIRDKYHCMIAGVEREDGTLMVPDVNAPFEEGDVVWVVGEKENVYQLVDQKNEKIQVK | failed
MEIGIIGTGNIGGTLARKLIAAGHQVRVANSKGIHGVQSFADEIGATAVDVYGAVKGADAIILSIPLPALASLPNGFFDDLPETVPLIDTSNYYPGLRDPLIPEIDDGMTESVWVSQQLSHPVIKAFNNILAWSLAELGTPKGSASRLAIAVAGDNATLKQIVMNLVDDTGFDAIDAGSLEESWRQQPSTPAYCCDYDAETMKKGLTAAVRGEAASKRDRLPELFGKLGANPTHEDIVAMNRSLNPLEHHHHHH | not failed
PRLYKEPSAKSNKFIIHNALSHCCLAGKVNEPQKNRILEEIEKSKANHFLILFRDSSCQFRALYTLSGETEELSRLAGYGPRTVTPAMVEGIYKYNSDRKRFTQIPAKTMSMSVDAFTIQGHLWQSKK | not failed
MDYFRLAEKFLREMHAKYMKRVSRPGNTPRPWFDFSEERLLSRLFEEMDELREAVEKEDWENLRDELLDVANFCMYLWGKLSVKNIYDKGEEQ | not failed
MSIGFYANDNFMGKSHIMDKSGKPHIGISKYPVIITQAKQQKLRKAINEARESNDILMVDFPRQMLITEHDDELVKSLGESLEEDLEYLGAIFYGKSKYVDSITGKFSLWRSNNVKVNLEHHHHHH | failed
